{"source": "patent US9404087B2", "about": "“Insulin producing cells derived from pluripotent stem cells” (Kadimastem Ltd., priority 2010, dated 2016)", "molecules": {"B1": {"name": "Activin A: recombinant human Activin A (Preprotech), 100 ng/ml (protein, UniProt P08476 311-426, looked up)", "Inhibin beta A chain": "GLECDGKVNICCKKQFFVSFKDIGWNDWIIAPSGYHANYCEGECPSHIAGTSGSSLSFHSTVINHYRMRGHSPFANLKSCCVPTKLRPMSMLYYDDGQNIIKKDIQNMIVEECGCS", "modifications": "Inhibin beta A chain"}, "B2": {"name": "Noggin: Noggin (Preprotech) added at 100 ng/ml in step 5 (protein, UniProt Q13253 28-232, looked up)", "Noggin": "QHYLHIRPAPSDNLPLVDLIEHPDPIFDPKEKDLNETLLRSLLGGHYDPGFMATSPPEDRPGGGGGAAGGAEDLAELDQLLRQRPSGAMPSEIKGLEFSEGLAQGKKQRLSKKLRRKLQMWLWSQTFCPVLYAWNDLGSRFWPRYVKVGSCFSKRSCSVPEGMVCKPSKSVHLTVLRWRCQRRGGQRCGWIPIQYPIISECKCSC"}}, "type_in_all_cases": "cell-based", "key": {"human ES cells": {"system": "human ES cells", "assay": "Indirect immunofluorescence of definitive endoderm markers after Activin A treatment", "method": "On day one, three wells of human ES cell colonies (grown on Corning 6×well plate for 4 days) detached by collagenase were collected into a 15 ml tube, and colonies washed twice by low speed centrifugation in differentiation medium A (DMEM/F12, 2% KOSR, 2 mM glutmine, 1×NEAA, 100 μM βMEtOH, 1 mM NaPyruvate and penicillin and streptomycin (PS)).\nAfter all the hES clusters had been collected and washed, the clusters were suspended in 1.5 ml/well of differentiation medium A1, (i.e. differentiation medium A including 100 ng/ml recombinant human Activin A (Preprotech) and 25 ng/ml recombinant Wnt 3 (R&D), 2% knock-out serum replacement and 2 mg/ml bovine serum albumin (BSA, cell culture tested SIGMA)). 450-500 colonies/well were seeded in Costar 6×well plates which had been coated with 0.1% porcine gelatin (Sigma) 1 day before. Alternatively, about 3000 colonies were seeded on 10 cm diameter plates. Plates were left in the incubator (37° C., 5% CO2) for 2 days without medium change.\nOn day 3, the medium was changed to differentiation medium A2 (DMEM/F12, 2% KOSR, 2 mM glut, 1×NEAA, 100 μM βMEtOH, 1 mM NaPyr and 2% Fetal Calf Serum (FCS)) containing 100 ng/ml Activin A and 2 mg/ml BSA. At this stage, clusters still floated and many single cells were visible. The plates were tilted so that clusters fell to the bottom edge of the well and the old medium was removed leaving clusters in 300 μl medium that is completed with 1.2 ml of medium A2. The collected culture medium that contained a few clusters was centrifuged at 900 rpm for 5 minutes. The pellet was re-suspended in 1.5 ml medium A2 and added to one of the wells. On day 4, most clusters adhered to the plate and the culture medium was changed similarly as on day 3, to differentiation medium A3 (DMEM/F12, 2 mM glutamine, 1×NEAA, 100 μM βMEtOH, 1 mM NaPyr but with 0.2% FCS) that contained 100 ng/ml Activin A and 2 mg/ml BSA. Cells were left in the medium A3 for 2 days.\nCells were fixed (4% paraformaldehyde in Ca^2+ and Mg^2+ free PBS for 20 minutes), washed ×3 with PBS and blocked with 10% horse serum in PBS. The reaction with the primary antibody (Ab) was performed in 10% horse serum with or without 1% BSA. Secondary antibodies (Either donkey anti mouse; donkey anti rabbit; donkey or rabbit anti-goat that are conjugated with fluorescent tags, Alexa 488 or Alexa 566 (Molecular Probes/Invitrogen) or with Cy3/donkey anti rabbit DyLight 488 (Jackson laboratories). Pictures were taken with a CCD camera and processed with an imaging program. Mouse monoclonal anti Sox17 Ab (R&D) 10 μg/ml was used with 0.1% Triton X100. Rabbit polyclonal anti FoxA2 (ab40874) (Abcam) was used at the dilution of 1/1000 with 0.1% Triton X100."}, "Human insulin mRNA": {"system": "Human insulin mRNA", "assay": "Human insulin mRNA by RT-qPCR with TBP as reference", "method": "(§1) Aliquots of the Presort culture and of EpCAM-MACS-separated fractions (from step 7), as well as of re-aggregated clusters (step 8) were analyzed. The number of cells was counted, using the Nucleocounter. After centrifugation at 350×g for 5 minutes, cell pellets were dissolved in M-PER (Mammalian protein extraction reagent, Pierce), typically using 0.1 ml M-PER for 2 million cells, and content of human insulin C-peptide was measured with an ELISA kit (Mercodia, Upsalh, Sweden, ultrasensitive c-peptide kit (minimal detection 5 pM) or Mercodia c-peptide ELISA (minimal detection 90 pM). Samples in M-PER were diluted 3 fold, or more in the kit buffer, and 20 μl of the ⅓ dilution were assayed. Results were expressed per mg total protein (as measured by Bradford assay) and per million cells (counted in a NucleoCounter). Other cell pellets were suspended in 0.7 ml buffer RLT (RNAeasy, Qiagen) per million cells, for RNA extraction. Human insulin mRNA was quantitated by RT-qPCR (Taq-Man, Applied Biosystems, Step One) using the TATA binding protein (TBP) gene as reference. In the same way, proteins and RNA were extracted from entire plates after scraping the cells with a rubber policeman.\nDifferentiation of hES cells towards a pancreatic lineage: The hES cell cultures were differentiated as detailed in Example 5 and FIG. 15, steps 1-8, and RNA extracted at different steps was subjected to RT-qPCR.\nHuman ES cells were differentiated according to the scheme illustrated in FIG. 22. Two modifications were made in the procedure detailed in Example 5. Thus, in step 2 and 3, the fetal calf serum was replaced by serum replacement (KOSR, Invitrogen), at the same concentrations (i.e. 2% in step 2, 0.2% in step 3). In addition, in step 5, Noggin (Preprotech) was added at 100 ng/ml. The EpCAM-MACS fractionation was performed as in Example 5."}, "human insulin C-peptide": {"system": "human insulin C-peptide", "assay": "Content of human insulin C-peptide by ELISA in cell fractions", "method": "On day 20, the medium used in step III of Example 2 was modified to adjust the glucose concentration to 5.5 mM (referred to herein as DM7). For isolation of EpCAM^+ cells by magnetic cell sorting (MACS technology, Miltenyi Biotec), a 10 cm-diameter plate was washed with PBS^−/− (no Ca^++, no Mg^++). Cells were then dissociated by treatment with Accutase (Stempro, 2.5 ml/10 cm plate), for 10 minutes at 37° C., and pipetting up and down. The cells were collected in DM7 and an aliquot counted in a NucleoCounter (New Brunswick). Cells were centrifuged at 1,500 rpm (350×g) for 5 minutes and re-suspended in MACS buffer (PBS^−/− with 0.5% BSA, 2 mM EDTA), using 0.3 ml for 50 million cells. Magnetic beads conjugated to anti-EpCAM antibodies (Miltenyi Biotec—CD326 pluripotent stem cells microbeads) were added (0.1 ml beads for 50 million cells). After 30 minutes at 4° C., the cells were washed once in 50 ml of MACS buffer, centrifuged, and finally re-suspended in 0.5 ml MACS buffer (for a maximum of 10^8 cells). […]\nas §1, with “Other cell pellets were suspended in 0.7 ml buffer RLT (RNAeasy, Qiagen) per million cells, for RNA extraction.” left out, “In the same way, proteins and RNA were extracted from entire plates after scraping the cells with a rubber policeman.” left out"}, "[1]": {"details": "five days Activin A conditioning, positive nuclei relative to DAPI nuclei (FIG. 1)"}}, "data": [{"molecule": "B1", "values": [{"measurement": "cells anti Oct4 positive", "setting": "human ES cells; end of 5 days of Activin A treatment", "result": 5, "unit": "%"}, {"measurement": "cells expressing Sox17 and/or FoxA2", "setting": "human ES cells; end of 5 days of Activin A treatment, 100 ng/ml", "result": "about 75%"}, {"measurement": "yield of cells expressing FoxA2", "setting": "human ES cells; [1]", "result": 89, "unit": "%"}, {"measurement": "yield of cells expressing Sox17", "setting": "human ES cells; [1]", "result": 98, "unit": "%"}]}, {"molecule": "B2", "values": [{"measurement": "Ratio Insulin mRNA over TBP mRNA", "setting": "Human insulin mRNA; Table 5 Expt 1, D 19 (EpCAM+)", "result": 0.7}, {"measurement": "Ratio Insulin mRNA over TBP mRNA", "setting": "Human insulin mRNA; Table 5 Expt 1, D 19 (Presort)", "result": 0.6}, {"measurement": "Ratio Insulin mRNA over TBP mRNA", "setting": "Human insulin mRNA; Table 5 Expt 1, D 23 (EpCAM+)", "result": 0.7}, {"measurement": "Insulin C-peptide", "setting": "human insulin C-peptide; Table 4 Expt 1, D 19 (EpCAM+)", "result": 8.15, "unit": "ng/mg protein"}, {"measurement": "Insulin C-peptide", "setting": "human insulin C-peptide; Table 4 Expt 1, D 19 (Presort)", "result": 2.9, "unit": "ng/mg protein"}, {"measurement": "Insulin C-peptide", "setting": "human insulin C-peptide; Table 4 Expt 1, D 23 (EpCAM+)", "result": 17.5, "unit": "ng/mg protein"}]}]}
